{"source": "the nanobody polyreactivity screen of Harvey et al. (2022)"}
{"assay": "yeast display, Sf9 membrane polyspecificity reagent, FACS + sequencing; frameworks hold sequencing errors", "outline": "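After 36–48 hours of galactose induction, yeast (Saccharomyces cerevisiae BJ5465) displaying a synthetic nanobody library were stained at 4 °C for 1 hour with 10% biotinylated, detergent-solubilized Sf9 membrane reagent. Streptavidin microbeads enriched the stained cells before FACS sorting into low and high (top ~1%) gates on anti-HA and streptavidin fluorescence. Each clone's polyreactivity label reflects its gate of origin.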"}
{"sequence": "QVQLVESGGGLVQAGGSLRLICAASGRIFYYYTMGWYRQAPGKERELVDTIRSGGSTYYADSVKGRFTISRDNAKNTVYLQMNSLKPEDTAVYYCAAAYRTGRGYGFDYWGQGTQVTVSS", "polyreactivity (PSR sort gate)": "high polyreactivity"}
{"sequence": "QVQLVESGGGLVQAGGSLRLICAASGRISKRYTMGWYRQAPGKERELVAAINSSTSKSYADSVKGRFTISRDNAKNTVYLQMNSLKPEDTAVYYCNARYNYSYDYNYWGQGTQVTVSS", "polyreactivity (PSR sort gate)": "low polyreactivity"}
{"sequence": "QVQLVESGGGLVQAGGSLRLICAASGRPSVLMLMGLYRQEPGKERELVAAIDDSTDTTYYADSVKGRFTISRDNAKNTVYLQMNSLKPDVTAGYYCADEEGYVKFSGSWSYGYDYWGQGTQVTVSS", "polyreactivity (PSR sort gate)": "high polyreactivity"}
{"sequence": "QVQLVESGGGLVQAGGSLRLICAASGRSFIGNAMGWYSQAPGKDREFDAAISRRGGSTYYADSVKGRFTISRDNEKNTVYLQMNSLKPEDTAVYYCAAGQTTTGILTYYYWGQGTQVTGSS", "polyreactivity (PSR sort gate)": "high polyreactivity"}
{"sequence": "QVQLVESGGGLVQAGGSLRLICAASGRSFQYYVMGWYSQAPGKEWELVAAMNRRGTSTYYADSVKGRFTISRDNAKNTVYLQMNSLKPEDTAVYYCAAVDRDYARTTTYDYWGQGTQVSVSS", "polyreactivity (PSR sort gate)": "high polyreactivity"}
{"sequence": "QVQLVESGGGLVQAGGSLRLICAASGRSFTSNAMGWYRQAAGKEWELVAAINFRGDSTYYADSVKGRFTISRDNAKNTVYLQMNSLKREDTAVYYCAAVGGRSSYRLDYWGQGTQVTVSS", "polyreactivity (PSR sort gate)": "low polyreactivity"}
{"sequence": "QVQLVESGGGLVQAGGSLRLICAASGRTCWKYVMGWYRQAPGKERDLVAVISSDGITNYADSVKGRFTISRDNAKNTVYLQMNSLKPEDTAVYYCNAGPDDYVGYWGKYDYWGQGTQVTVSS", "polyreactivity (PSR sort gate)": "low polyreactivity"}
{"sequence": "QVQLVESGGGLVQAGGSLRLICAASGRTFAIYAMGWYRQAPGKEREIVAAISWSGGDTYYADSVKGRFTISRDNEKNTVYLQMNSLKPEDTAVYYCAADRYDYSYFGYGAQDYDYWGQGTQLTVSS", "polyreactivity (PSR sort gate)": "low polyreactivity"}
{"sequence": "QVQLVESGGGLVQAGGSLRLICAASGRTFAYYAMGWYRQAPGKERELVATITWNGGSTYYADSVKGRFTISRDNAKNTVYLQMNSLKPEDTAVYYCAKSVGWWSPPLGDYWGQGTQVTVSS", "polyreactivity (PSR sort gate)": "low polyreactivity"}
{"sequence": "QVQLVESGGGLVQAGGSLRLICAASGRTFDNYAMGWYRQAPGKEREFVAAITTGVGSTYADSVKGRFTISRDNAKNTVYLQMNSLKPEDTAVYYCAGDSYWLFDAYDYWGQGTKVTVSS", "polyreactivity (PSR sort gate)": "low polyreactivity"}
{"sequence": "QVQLVESGGGLVQAGGSLRLICAASGRTFGGNAMGWYRQAPGKEWDLVAAISYSDGSKYYADSVKGRFTISRDNANNSVYLQMNSLKPEDTAVYYCAAARHVRTDYLDYDYWGQGTQVTVSS", "polyreactivity (PSR sort gate)": "low polyreactivity"}
{"sequence": "QVQLVESGGGLVQAGGSLRLICAASGRTFGRYAMGWYRQAPGKERELVADIDYGGGSTYYADSEKGRFTISRDNAKNTVYLQMNSLKPEDTAVYYCNARRDIGWGYHMDYWGQGTQVTVSS", "polyreactivity (PSR sort gate)": "high polyreactivity"}
{"sequence": "QVQLVESGGGLVQAGGSLRLICAASGRTFGSNAMGWYTQAPGKERELVAAIRERGGSTYADSVKGRFTISRDNAKNTVYLQMNCLKQEDTAVYYCNAVYVRSSLYYTGWSTFYYWGQGTQVTVSS", "polyreactivity (PSR sort gate)": "low polyreactivity"}
{"sequence": "QVQLVESGGGLVQAGGSLRLICAASGRTFNPYAMGWYRQAPGKERELVAAISSGGNTNYADSVKGRFTISRDNAKNSVYLQMNSLKPEDTAVYYCATGLRWYHQLTGGYWGQGTQVTVSS", "polyreactivity (PSR sort gate)": "high polyreactivity"}
{"sequence": "QVQLVESGGGLVQAGGSLRLICAASGRTFRDYAMGWYRQAPGKEWELVAVISRRGSSTYYADSVKGRFTISRDNAKNTVYLQMNSLKPEDTAVYYCARVPTTWRYAYGYWGQGTQVTVSS", "polyreactivity (PSR sort gate)": "high polyreactivity"}
{"sequence": "QVQLVESGGGLVQAGGSLRLICAASGRTFRGYAMGWYRQAPGNERELVAAITKSGGSTYYADSVKGRFTISRDNEKNTVYFQMNSLKPEDTAVYYCAKLRSSRDYDYWGQGTQVTVSS", "polyreactivity (PSR sort gate)": "high polyreactivity"}
{"sequence": "QVQLVESGGGLVQAGGSLRLICAASGRTFRLYAMGWYRQAPGKERELVAAITRGGRTNYADSVKGRFTISRDNAKNTVYLQMNSLKPEDTAVYYCAARYVERHTDYYYWGQGTQVTVSS", "polyreactivity (PSR sort gate)": "low polyreactivity"}
